The target in one test is lipolysis-stimulated lipoprotein receptor (LSR) on Caco-2 cells (human (endogenous in Caco-2)) (UniProt Q86X29). As to the kind of experiment: flow cytometry on cells. (A flow cytometer gives signals particle by particle.)
Sequence of UniProt Q86X29 (Q86X29 whole entry): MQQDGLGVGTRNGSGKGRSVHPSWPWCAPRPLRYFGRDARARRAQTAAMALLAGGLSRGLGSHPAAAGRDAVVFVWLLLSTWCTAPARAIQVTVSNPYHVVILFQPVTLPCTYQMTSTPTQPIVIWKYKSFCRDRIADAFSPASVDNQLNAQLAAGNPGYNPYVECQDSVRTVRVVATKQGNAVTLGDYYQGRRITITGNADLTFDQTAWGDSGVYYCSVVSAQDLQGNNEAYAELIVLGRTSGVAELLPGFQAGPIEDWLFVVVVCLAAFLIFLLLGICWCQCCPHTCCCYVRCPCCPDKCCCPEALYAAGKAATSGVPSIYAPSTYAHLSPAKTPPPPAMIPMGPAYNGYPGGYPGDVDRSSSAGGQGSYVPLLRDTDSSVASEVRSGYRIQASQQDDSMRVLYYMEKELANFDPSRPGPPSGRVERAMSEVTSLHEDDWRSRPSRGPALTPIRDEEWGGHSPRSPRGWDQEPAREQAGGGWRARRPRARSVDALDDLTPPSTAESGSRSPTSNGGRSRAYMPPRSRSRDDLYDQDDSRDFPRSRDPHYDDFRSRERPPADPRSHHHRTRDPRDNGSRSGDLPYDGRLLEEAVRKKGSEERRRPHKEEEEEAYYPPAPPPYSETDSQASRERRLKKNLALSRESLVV
In general, Kd refers to the constant that tells how readily two partners part at equilibrium. As to “Alexa-647-labeled CDTb T854E (from UniProt Q9KH41 43-876) (natural protein)”, the Kd was determined as 38 nM. Take “Alexa-647-labeled CDTb I852E (from UniProt Q9KH41 43-876) (natural protein)”: the Kd is 75 nM. “Alexa-647-labeled CDTb Y812D (from UniProt Q9KH41 43-876) (natural protein)” came in with a Kd of 3.9 nM. In the case of “Alexa-647-labeled CDTb, wild type (from UniProt Q9KH41 43-876) (natural protein)”, the Kd came to 4.5 nM. This Kd and that of the substance before are within 1.5-fold of each other. In the case of “Alexa-647-labeled CDTb F774D (from UniProt Q9KH41 43-876) (natural protein)”, the Kd was over 50 nM.

The next test addresses trypsin-activated CDTb (cell-binding component of the C. difficile transferase toxin), oligomer (Clostridioides difficile strain R20291) (UniProt Q9KH41). As to the kind of experiment: cryo-EM structure.
One may read the stoichiometry N as a count of units in the complex or per binding partner. On to “trypsin-activated CDTb (cell-binding component of the C. difficile transferase toxin), oligomer (from UniProt Q9KH41 43-876) (natural protein)”, for which the stoichiometry N turned out to be 7.
